To fix the notation:
B1: anti-GPNMB antibody GPN-96 (antibody, V domains shown)
VH: QVQLVQSGAEVKKPGASVKVSCKASGYTFTSYWMHWVRQAPGQGLEWMGEINPYDQRTNYAQKFQGRVTMTVDKSTSTVYMELSSLRSEDTAVYYCARSTGNYAWFAYWGQGTLVTVSS
VL: DIVMTQSPDSLAVSLGERATINCKASQDVSPSLAWYQQKPGQPPKLLIYRASYRYTGVPDRFSGSGSGTDFTLTISSLQAEDVAVYYCQQHYSIPLTFGGGTKVEIK
B2: anti-GPNMB antibody GPN-98 (antibody, V domains shown)
VH: B1 VH
VL: B1 VL with R50S
B3: anti-GPNMB antibody GPN-97 (antibody, V domains shown)
VH: B1 VH
VL: B1 VL with A25T, R50S, A51G
B4: recombinant Fab2 fragment of anti-GPNMB antibody GPN-43 (other)
VH: EVQLQQSGPELVKPGASVKISCKASGYTFTDYYMNWVRQSHGKSLEWIGDINPYHGGSTYNQKIKVKATLTVDKSSSTAYMELRSLTSEDSAVYYCARNWPYFDYWGQGTTLTVSS
VL: DIQMTQSPASLSASVGETVTITCRASENIYSFLVWYQQKQGKSPQLLVYNAKTLAEGVPSRFSGSGSGTQFSLKISSLQPEDFGSYYCQHHFGTPPYTFGGGTKLEIK
notes: also called GPN-43 Fab2
B5: recombinant Fab2 fragment of anti-GPNMB antibody GPN-48 (other)
VH: QVQLQQSGPELVKPGASVKLSCRASGYGFSSFWMNWVKQRPGKGLEWIGRIYPGKGDTLYNGKFKDKATLTADESSSTAYMQLSSLTSEDSAVYFCARSIYYYDYWYFDVWDTGTTVTVSS
VL: DIVMTQSHKFMSTSVGDRVNITCKASQDVNSAIAWYQQKPGQSPKLLIYSASYRFIGVPDRFTGSGSGTGFTFTISSVQAEDLAVYYCQQHYTTPLTFGAGTKLELK
notes: also called GPN-48 Fab2
B6: recombinant Fab2 fragment of anti-GPNMB antibody GPN-52 (other)
VH: DVQLQESGPGLVKPSQTVFLTCTVTGISITTGNYRWSWIRQFPGNKLEWIGYIYYSGTITYNPSLTSRITITRDTPKNEFFLEMNSLTAEDTATYYCARDLTHWYFDVWGTGTTVTVSS
VL: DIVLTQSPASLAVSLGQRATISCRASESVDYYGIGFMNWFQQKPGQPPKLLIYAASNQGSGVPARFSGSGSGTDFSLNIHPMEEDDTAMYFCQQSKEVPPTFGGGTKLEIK
notes: also called GPN-52 Fab2

Numbering of substitutions follows the chain as printed.

The target of the first experiment is T1, soluble mouse GPNMB (recombinant extracellular domain) (mouse, UniProt Q99P91 23-502).
T1 construct: also called moGPNMB; not shown: C-terminal polyhistidine or Avi-His tag
T1 sequence: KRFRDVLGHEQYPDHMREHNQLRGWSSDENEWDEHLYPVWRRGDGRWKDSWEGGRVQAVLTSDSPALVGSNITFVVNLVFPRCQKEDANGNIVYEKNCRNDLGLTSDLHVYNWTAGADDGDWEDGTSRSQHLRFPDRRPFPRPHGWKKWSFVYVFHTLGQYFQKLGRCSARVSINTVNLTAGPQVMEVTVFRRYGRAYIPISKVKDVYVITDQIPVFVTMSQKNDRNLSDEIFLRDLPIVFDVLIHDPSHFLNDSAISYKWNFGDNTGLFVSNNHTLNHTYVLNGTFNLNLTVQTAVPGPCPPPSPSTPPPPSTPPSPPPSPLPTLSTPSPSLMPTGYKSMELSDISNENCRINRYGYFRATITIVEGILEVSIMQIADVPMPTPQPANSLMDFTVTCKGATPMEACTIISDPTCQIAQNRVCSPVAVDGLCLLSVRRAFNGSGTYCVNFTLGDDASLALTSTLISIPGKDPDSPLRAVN
As to the kind of experiment: SPR Biacore T200, IgG captured on Protein A/G; nb = no binding observed. For orientation: SPR reads the build-up and loss of mass on a sensor chip optically.
B1: the binding result is “no binding (tested: 300 nM highest analyte concentration)”.
Same read-out and setting: the same measure for B2: “no binding (tested: 300 nM highest analyte concentration)”; for B3: “no binding (tested: 300 nM highest analyte concentration)”.

Another experiment addresses T2, full-length untagged human GPNMB expressed on cells (human, UniProt Q14956 23-572).
T2 sequence: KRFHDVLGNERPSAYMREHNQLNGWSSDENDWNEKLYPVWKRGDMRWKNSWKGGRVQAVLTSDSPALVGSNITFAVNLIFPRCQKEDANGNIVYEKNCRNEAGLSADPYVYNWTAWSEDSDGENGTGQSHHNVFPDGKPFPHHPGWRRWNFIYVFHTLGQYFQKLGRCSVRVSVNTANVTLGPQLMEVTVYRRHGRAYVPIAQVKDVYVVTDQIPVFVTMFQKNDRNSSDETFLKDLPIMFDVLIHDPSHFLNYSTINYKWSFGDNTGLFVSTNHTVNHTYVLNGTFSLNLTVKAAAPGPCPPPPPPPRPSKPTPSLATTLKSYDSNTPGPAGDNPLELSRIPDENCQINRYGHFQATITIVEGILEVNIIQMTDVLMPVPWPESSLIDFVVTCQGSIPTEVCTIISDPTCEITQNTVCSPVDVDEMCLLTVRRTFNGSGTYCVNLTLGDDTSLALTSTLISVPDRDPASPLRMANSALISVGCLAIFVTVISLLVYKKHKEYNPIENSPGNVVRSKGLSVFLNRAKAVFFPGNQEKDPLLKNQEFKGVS
Description: cell-based or functional assay.
As for B1, the “Inflammasome: Fold Decrease IL-1β (max response at 0.3 µg/ml)” value amounted to 0.525 fold.
Same read-out and setting: the same measure for B2: 0.664 fold; for B3: 0.476 fold.

Another experiment addresses T2, full-length untagged human GPNMB …. Description: cell-based or functional assay. The source holds these as a separate data set.
Take B1: the “EC50 GCase” value came out at 0.23 nM and the “Fold Increase GCase (max response at 1 µg/ml)” value stood at 1.31 fold.
Regarding B2, the “EC50 GCase” value was 0.25 nM and the “Fold Increase GCase (max response at 1 µg/ml)” value stood at 1.39 fold.
Taken in the same sequence, the figures for B3 were 0.22 nM and 1.36 fold.

The next experiment has the same target. As to the kind of experiment: FACS titration, FS293-huGPNMB+ cells. As to the method:
Affinity matured anti-GPNMB antibodies of the present disclosure were examined to determine their ability to bind human and mouse GPNMB expressed on FS293-huGPNMB+ or B16F10 cells, respectively. Cell-based affinity measurements were performed to ascertain the apparent affinities of anti-GPNMB antibodies to cell-surface expressed GPNMB. Serial dilutions of anti-GPNMB antibodies of the present disclosure were added to 100,000 FS293-huGPNMB+ or B16F10 cells and allowed to achieve binding equilibrium at 4° C. After addition of fluorescently labeled secondary antibody and brief washing steps, MFI values as a function of titrated antibody concentration were recorded via FACS analysis. Equilibrium binding curves were fit using nonlinear regression analysis with Graphpad Prism 6 software.
Consider B1, for which the EC50 worked out at 0.652 nM.
In turn, B2 gave an EC50 of 0.407 nM.
Still for that read-out and setting: the same measure for B3: 0.546 nM.

The target in another experiment is T3, soluble mouse GPNMB-Fc polypeptide (Fc of human IgG1 or mouse IgG2A, not specified for the assay) (mouse, UniProt Q99P91 23-502).
T3 construct: extracellular domain; also called moGPNMB-Fc; mGPNMB; not shown: Fc region of human IgG1 or mouse IgG2A; in the Fab2 assay detected with anti-human IgG1 secondary antibody
T3 sequence (looked up): T1 sequence
As to the kind of experiment: FACS, Fab2 blocking moGPNMB-Fc binding to SVEC4-10 cells. As to the method:
Purified recombinant Fab2 fragments of select anti-GPNMB antibodies of the present disclosure were produced through transient transfection and purified. Briefly, 2 ug/mL soluble mouse or human GPNMB-Fc diluted in binding buffer was pre-complexed with increasing concentrations of anti-GPNMB Fab2 fragments in 96-well plates. Subsequently, 100,000 SVEC4-10 cells were added per well and incubated on ice for 30 minutes. Soluble moGPNMB-Fc or huGPNMB-Fc bound to cell surface was detected with fluorescent anti-human IgG1 secondary antibody and measured on FACSCanto. IC50 and EC50 values based on changes in MFI values were calculated for each antibody.
For orientation: A flow cytometer gives signals particle by particle.
B4: the IC50 stood at 9.42 nM.
The same measure, in the same setting: the same measure for B5: 2.33 nM; for B6: 3.19 nM.

The next experiment deals with T2, full-length untagged human GPNMB …. Description: cell-based or functional assay. This is another data set of the same source.
B1: the “EC50 PDL1” value amounted to 0.58 nM, the “Fold Increase CD40 (max response at 1 µg/ml)” value amounted to 1.72 fold and the “Fold Increase PDL1 (max response at 1 µg/ml)” value worked out at 1.9 fold.
Taken in the same sequence, the figures for B2 were 1.24 nM, 1.71 fold and 1.97 fold.
Regarding B3, the “EC50 PDL1” value was 0.75 nM, the “Fold Increase CD40 (max response at 1 µg/ml)” value is 1.73 fold and the “Fold Increase PDL1 (max response at 1 µg/ml)” value came to 2.05 fold.

In another experiment the target is T4, soluble human GPNMB (recombinant extracellular domain) (human, UniProt Q14956 23-498).
T4 construct: also called huGPNMB; recombinant human GPNMB extracellular domain; not shown: C-terminal polyhistidine or Avi-His tag
T4 sequence: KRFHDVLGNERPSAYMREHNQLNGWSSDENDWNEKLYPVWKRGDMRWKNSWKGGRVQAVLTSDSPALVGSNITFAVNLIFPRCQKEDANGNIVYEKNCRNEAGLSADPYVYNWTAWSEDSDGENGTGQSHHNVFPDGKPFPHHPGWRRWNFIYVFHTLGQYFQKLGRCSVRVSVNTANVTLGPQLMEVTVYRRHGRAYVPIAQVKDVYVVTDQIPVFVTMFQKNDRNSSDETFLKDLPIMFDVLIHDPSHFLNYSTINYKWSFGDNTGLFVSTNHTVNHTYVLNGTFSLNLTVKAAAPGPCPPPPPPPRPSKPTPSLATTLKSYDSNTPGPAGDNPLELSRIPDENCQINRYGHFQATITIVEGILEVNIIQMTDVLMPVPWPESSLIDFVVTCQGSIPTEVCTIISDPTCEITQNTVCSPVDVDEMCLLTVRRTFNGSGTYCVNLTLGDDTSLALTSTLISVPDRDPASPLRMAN
As to the kind of experiment: SPR Biacore, IgG captured. As to the method:
(§1) Binding kinetics of the humanized and affinity matured anti-GPNMB antibodies described above were evaluated using the Biacore T200 (Cytiva). Briefly, IgGs were diluted to 10 μg/mL and captured using a Protein A/G (ThermioFisher, #21186) surface on a CM5 chip that was prepared by amine coupling according to the instrument manufacturer's recommendations. The captured antibodies were tested for their ability to bind human, cynomolgus monkey, and mouse GPNMB recombinant proteins as follows.
(§2) Human, cynomolgus, and mouse GPNMB analytes were diluted in running buffer (HBS-EP+, Teknova, #8022, with 0.5 mg/ml BSA, MP Biomedicals LLC, #820451), to a concentration of 300 nM, then diluted 3-fold serially to 100 nM, 33 nM, and 11 nM. Each sample was injected for 2 minutes to allow association, followed by dissociation in buffer alone for 10 minutes. Each sample injection was followed by the regeneration of the chip with three 30-second injections of 10 mM glycine, pH 1.7. Fresh antibody was captured at the beginning of each cycle.
(§3) Data were analyzed using Biacore evaluation software to generate kinetic constants. The equilibrium dissociation constants (KD) were calculated from the fitted association and dissociation rate constants (k-on and k-off) for each of the anti-GPNMB antibodies.
Take B1: the Kd was 2.5 nM, the koff was determined as 0.0002 s⁻¹ and the on-rate constant (kon) stood at 78000 M⁻¹ s⁻¹.
Taken in the same sequence, the figures for B2 were 11.9 nM, 0.00091 s⁻¹ and 76000 M⁻¹ s⁻¹.
Taken in the same sequence, the figures for B3 were 6.7 nM, 0.00054 s⁻¹ and 81000 M⁻¹ s⁻¹.

For a further experiment, the target named is T5, soluble cynomolgus GPNMB (recombinant extracellular domain) (cynomolgus, UniProt Q14956 23-499 (human entry), limits assumed).
T5 chain: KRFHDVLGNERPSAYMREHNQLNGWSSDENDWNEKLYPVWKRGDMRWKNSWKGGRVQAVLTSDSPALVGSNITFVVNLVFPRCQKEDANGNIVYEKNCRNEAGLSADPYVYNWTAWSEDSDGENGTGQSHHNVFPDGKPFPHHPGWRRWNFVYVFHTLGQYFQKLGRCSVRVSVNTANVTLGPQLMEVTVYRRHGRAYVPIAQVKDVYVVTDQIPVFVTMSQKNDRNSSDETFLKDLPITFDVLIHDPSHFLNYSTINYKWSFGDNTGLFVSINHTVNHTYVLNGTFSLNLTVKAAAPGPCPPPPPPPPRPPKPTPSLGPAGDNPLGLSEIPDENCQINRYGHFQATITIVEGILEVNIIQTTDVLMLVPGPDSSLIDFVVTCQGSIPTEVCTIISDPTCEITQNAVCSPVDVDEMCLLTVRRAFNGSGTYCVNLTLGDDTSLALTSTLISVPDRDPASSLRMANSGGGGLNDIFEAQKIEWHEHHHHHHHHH
Description: SPR Biacore, IgG captured. The protocol: as §1, §2, §3
With B1, the Kd was determined as 3.2 nM, the koff turned out to be 0.00025 s⁻¹ and the kon was 77000 M⁻¹ s⁻¹.
Taken in the same sequence, the figures for B2 were 14.6 nM, 0.0011 s⁻¹ and 74000 M⁻¹ s⁻¹.
Taken in the same sequence, the figures for B3 were 8.2 nM, 0.00065 s⁻¹ and 79000 M⁻¹ s⁻¹.

Broadly, the EC50 is the concentration needed to bring the measured effect to its halfway point. For orientation: IC50 means the concentration that inhibits the measured activity by half. A higher IC50 goes with weaker potency. In general, Kd refers to the concentration at which binding is half-saturated. For orientation: koff means a measure of how fast the partners let go of each other. Usually kon stands for the second-order rate constant of association.
